Test results published in the domain aggregation screens of Martell et al. (2025).

Assay: soluble fraction after stress (log2 fold change); higher = more stays soluble; pooled small domains, quantitative proteomics
Settings: stress: 50 degC
Outline: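 Quantitative proteomics served as the high-throughput read-out for pooled custom libraries of small protein domains. Each was stressed at 50°C. Aggregation propensity is expressed as the base-two log fold change in soluble protein after stress. A higher value means a larger share of the protein remains in solution.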

| Sequence | soluble fraction (log2) |
| --- | --- |
| HMDVLDVADNVNDDMSFADAFAAARSEVGAGGIFYWHGKAYGTYYENEWAGMSEEDKADYWDAVARTTS | -0.18 |
| HMAVNVNGIHLSSQQHEALVSIWRTGRMPEPHAGQKPWLWIQALRRRGLVSGNALRLTDKGRHIVQLLQ | 0.142 |
| HMDQNVSVPKLAGLQVEEANAILKSKGLHIEIIDSIYQKDAVPGAIIEQVPEENSKVKKGRAIYVSVYAK | -0.227 |
| HMLAIKKGGIFAILGPNGSGKSTFSKVLAGHPAYTVVDGDIFFKGLSILDLEPEERSHLGIFLAFQ | -0.153 |
| HMSASLPAAVEDPDLPYRVGAKLRHARWGEGLLVGIQREGSDVIATVHFASVGRKRLSLQYAHLEE | -0.41 |
| HMQSDQLSDREREILRLIGSGRTNQEISQELQVSGSTVRTHLQHILDKLGLENRNQAVLYAIRIGLAAPP | -0.125 |
| HMGELGPGSRGQAVRALQERLMALGFPLARFGADGIFGRETTGALRAFQHVAGLSPTGLGDHETLKWLGII | -0.935 |
| HMEDAFLQRLISIIEANLSNVDFNVKMLAEQLNMSQPTLYRKVKQRSELSVIDMIRSIRILSLIHISEPTR | -0.988 |
| HMILQTLSERVTETLRDWILHGHFKPGDKIEEVPIAERMGVSRTPVRAAFATLTNEGLIDHQPNRGYQVRV | -0.325 |
| HMTDLQNDIQAFNLKKMSYQHETKKLEEKRNPEKLEKLEQDIQALYLRIMENPNMRAFDSAKQALYLQIM | -0.773 |
| HMIAVSQEQIKQIIVDDPSFHDANGKFSQALLTQYLNQRRMSEDQFVEEIRDQFLFQNLQNLVQNG | 0.0233 |
| HMSIPVLKDGTYESWGNEKVYKVGDRVMVGSNGYVAKWWNQDETPEKAIINPNDSPWRPMTESEIMEVLK | -0.0154 |
| HMLDSDARRRGLIEYLSLNGYATMRQLAGEFDVSINTIQRDITYLARYYPLETAYGRYGGGVYFEQNWQ | -1.56 |
| HMILEEIIGKNIARYREAAGLTQATLAEKIGISTAFVSRVERGQKKMKVETLYATAKVLNVSVDALLS | -2.1 |
| HMVREVSYDQFLHFVEAKQVGMVYQDGESLMFTLKEDVEKEWGVTAYKTGLWPDANLTDRLLDAGVVFS | -0.715 |
| HMNETRVDQAADLLLALLEKEPKSAAEILDEFEQAGFSKSGLYRAKDALGVVSIRKEGRWVWSLPHSLD | -0.104 |
| HMNTLLGLSNSFQDNKDLENANSISRRFISYRPRSEAELRIRLLKVFSHEIVLESVAQMYREGLLNDQRF | -3.33 |
| HMNTKLSYSDLIEKIEAGQVEKVELDAGGSSAIVKLKNDNIEKRVNVPSIDNLMENLQDNMKTGNISVTE | 0.42 |
| HMIDFDHADIERLWNSIIHYVPERQKLDFAIDFIKSLEDIGVEHDVLRGSAELDPKLEEAVNTVFE | -0.52 |
| HMPLITDIKIQVKNTEKVSLFVDGKYSFSLTISQLAEHKILKTNQEISAKQVAEFKKLSNLTNLYIRIVG | -0.149 |
| HMNMRVLSEQPNKKSYQDGNLRLKVFGASFKKSDILNEALNQARVEETGLQIPKLLEVKQIDGQWTIVTE | -0.0363 |
| HMADGDIIPEGQRDATLASLAGSMRARGMTEAEILAALQVTNETRVRPPMALADLERIARSIGRYEPGK | 0.0818 |
| HMSVLLDDLSPREREILQLVVEGHSSTKIAGMLGLASATVDTYRSRLMAKLHIDNLPDLVRFAIRHGLIS | -1.22 |
| HMNQASLTYSEFIANVESKAITRVTISGDTISGILADGKPFQTIYPMADLELLPILRRSGVDINVKEVQ | -0.117 |
| HMELEKIRPDLDGLEIMAILGISPSPIVGRAYQYLLDLRMDRGPLGPDAAKAELLNWWSLNQPK | -1.3 |
| HMLDSGNPILPYKLSLLANVDIRTVRNAISAGELVAFKSEFDGEVYVENGSARRWLHGRRGFKPTLK | -0.84 |
| HMESLNDRIKLVFKDSGLTQMDISKRLNIAQSSVSGIISGKANPSKRTLADIADRFDVNLEWLRDGTGPMK | 0.337 |

| Sequence | soluble fraction (log2) |
| --- | --- |
| HMKNKFYEEFSDYIFKHTGIHYAEANYYQLDARINKLMKFLETSDENDVLKAIQGGAVKDQRVHQMIVDLA | -1.7 |
| HMNMNDIKFGKYLKRVRKKYNFSKEYVANILKVKESLVSDWESGRLTLNDEYMEKLSLFYGVNLYKK | -0.863 |
| HMQSHGSRIWTDITGNFTREASFIELAEGKVTLQLTDGRRTIISFEILSKKDQEYVLDIGDS | -2.11 |
| HMVAPKTEEQQKMFLESIVTKRQAETLIEKYPNIVQDIIDGTDNVDLANLKGIGEHTYNLIKEKVLSNY | 0.279 |
| HMTNYNTEKIIPEEQAGKRLDVVLANIFPEFSRSRLKNWIIDGFILVDGKVLRPRDFVTGGELVSIDVIV | -0.1 |
| HMTLGARTLAAIQSLPKVQQAVFTMKHFEGLKYREISQITGTSEGALKASYHIALEKIKAFLREK | -2.53 |
| HMPEMAIRTLRLRNQRGAAVAAEWSRITASLLELRQVEFVNPVDQLIVLKGPEPWAGVAEELVRQLDV | -0.849 |
| HMPATTMMVVVDRDLPYGHVLTDRDVRLETRRATSPGASVAFTSIDPVLGQSLTRPLGAGTPVGRADLR | -0.155 |
| HMAFAVWVKLVAIGPNYAQLEIEQGTQRNVRTLRPGDDAPEGVRLLSLTPTHAEVQANGIARKLALGQGMA | -0.381 |
| HMELGWYVRLRRRELGLSVTALAEKAGMSQSYLSQIETGDRGNPSPESLRSLAEALEVSPRELESLV | -0.331 |
| HMETKKEIIEAINELEEKYRNAIYLTSIEKLSYEETSKILGQSLSNTKNLIHRGKQQLRKILIKK | -0.214 |
| HMIDRADLWEALRKLPEDTLKLFSLHFEKGMTHDEISKHTDIPVGTVKTKLRRGLIEARKLAREF | -0.795 |
| HMSSAYLTVRGIDIDVIYKDIKNLHIAVYPPFGRVRVAAPSHLDDDQVRLAVIQRLTWIKRQRERLRST | -1.41 |
| HMPFGIYGGKVSSLDDLKDKAAVLVPNDVSNEARALLLLEAQGLIKLKEGVGLEATRNDIVEN | ≥ 0.62 |
| HMAMNLQETVLMQLRDLILRGTFEPGQRLSEQPLAERLKASRTPVRSALVTLEQEGLIEASETGKYLVRQ | -0.421 |
| HMPEQLLNTRIPLEFAGRRFDASLAELFPDYSRSRLAAWIKDGAARLDGETVAPRHTVRGGEQVEILVRM | -0.238 |
| HMEDEISLGAINVPRGSVIVTAGGARLVEGSDYTVDYYSGTVKILNKSLLDAGTPINVSLET | 0.0198 |
| HMKTRNISGNHEAVWQAVRSRTQAGHPTTRAVIMDDLKAQGLNTQKFSRWLKKLVDDGSVYMDGDTIIMGK | -0.186 |
| HMVDFVNVVVPVKANYGGEAVVEFLDERLSEFGTEGIYRIELQGETMENPSPDYSQLKAKYHISEIVDRT | 0.08 |
| HMRQSDIAAAFRESILRSSKGFQYLHTRDFVTALRRRGIHLSEVEANSWIAREKTYFVDSALDHSENRLWI | -1.6 |
| HMFTNSTSSRQLTNSDDTLRLNISSQTRQMLPNGQPFGGSLSGKLLLVIYGATTRSIPAQTTPEKIVV | -0.134 |
| HMGEKVIAVSGGFDPIHVGHLRMMQDAAQHGRLVVIVNSDEWLLKKKGYVFMPWEERAELIGAYDFVDE | -0.977 |
| HMYPQLIGFKVIDEDKGEVGVVKEVSESMHQILLTVMKGKKEILIPLAEEFITKVNRHKKELFMVLPDG | 0.502 |
| HMQNYNLTQQEKKVLQLLVSGKSYKMIAAELNVAFDTVKSHITNIYSKLHVHSGTEAVSVAIRDKI | -0.444 |
| HMDSSNLSLIAGVGPTIEKKLRAAGITSWEQIAAWTEADVAKYDEELNLRGRITRDEWIEQAKELLAGKPP | -0.0993 |
| HMTRKQTIYEFLRRMKSQHGLDAVYSTEEIANAVGVSRANVSSDLNRLFEEQLVEKLPGWPVKYRA | 0.0186 |
| HMETWDQAYETIKQNILNLTYPPGMPLTEAKLAEELGMSRSPVRTALRMLQTDGLIVTDYYKSMTVKEI | -1.71 |
